Data taken from US20220196676A1 (NORDIC BIOSCIENCE A S, published 2022).

How the values were obtained:
[1] = target: T1, nonsense peptide YLSGPFMSYL; assay: C8-C competitive ELISA with HRP-labelled 13G5
T1 construct: Control peptide of the C8-C specificity test; also called nonsense peptide (C8-C)
T1 peptide: YLSGPFMSYL
Procedure: (§1) ELISA-plates used for the assay development were Streptavidin-coated from Roche (cat.: 11940279). All ELISA plates were analyzed with the ELISA reader from Molecular Devices, SpectraMax M, (CA, USA). We labelled the selected monoclonal antibody with horseradish peroxidase (HRP) using the Lightning link HRP labelling kit according to the instructions of the manufacturer (Innovabioscience, Babraham, Cambridge, UK). A 96-well streptavidin plate was coated with biotinylated synthetic peptide biotin-[…] (SEQ ID NO: 25) (Chinese Peptide Company, China) dissolved in assay buffer (50 mM Trizma, 0.46 mM Tween 20, 0.08 mM Phenol Red, 34 mM NaCl, 0.36% Bronidox L5, 1% BSA, pH 7.4) and incubated 30 minutes at 20° C. 20 μL of standard peptide or samples diluted in assay buffer were added to appropriate wells, followed by 100 μL of HRP conjugated monoclonal antibody 13G5, and incubated 20 hour at 4° C. Finally, 100 μL tetramethylbenzinidine (TMB) (Kem-En-Tec cat.4380H) was added and the plate was incubated 15 minutes at 20° C. in the dark. All the above incubation steps included shaking at 300 rpm. After each incubation step the plate was washed five times in washing buffer (20 mM Tris, 50 mM NaCl). The TMB reaction was stopped by adding 100 μL of stopping solution (1% H₂SO₄) and measured at 450 nm with 650 nm as the reference. […]

[2] = target: T2, elongated peptide SFSGYLLYPMA; assay: C8-C competitive ELISA with HRP-labelled 13G5
T2 construct: Selection peptide with one more alanine at the C-terminus; synthetic (Chinese Peptide Company); also called elongated peptide (one additional amino acid)
T2 peptide: SFSGYLLYPMA
Procedure: as §1

binding result [1]: no binding
binding result [2]: no binding
B1: monoclonal antibody NB683-13G5 (antibody, mouse IgG1, kappa, V domains shown)
VH: EVLLQQSGPELEKPGASVKISCKASGYSLTDYNMNWVKQSDGKSLEWIGIIDPNYGDTNYNQKFKDKATLTVDKSSNTAHMQLKSLTSDDSAVYYCARSGYYGNSHYGLDYWGQGTSVTVSS
VL: QIVLTQSPAIMSASPGERVTMTCSVSSSVGYIHWYQQKSGTSPKRWISDTSKLASGVPSRFSGSGSGASYSLTIDRVEAEDAATYYCQQWSSNPPTFGGGTKLEMKR
notes: also called clone 13G5; monoclonal antibody 13G5
